{"source": "a protein production outcome set (Wang et al. 2014)", "test": "label from the status in PepcDB records", "data": [{"sequence": "GSSGSSGMGNSKSGALSKEILEELQLNTKFSEEELCSWYQSFLKDCPTGRITQQQFQSIYAKFFPDTDPKAYAQHVFRSFDSNLDGTLDFKEYVIALHMTTAGKTNQKLEWAFSLYDVDGNGTISKNEVLEIVMAIFKMITPEDVKLLPDDENTPEKRAEKIWKYFGKNDDDKLTEKEFIEGTLANKEILRLIQFEPQKVKEKMKNA", "values": [{"measurement": "protein production", "value": "not failed"}]}, {"sequence": "ILGWVEFTRLEPWGIKTPARIDTGANTSSMSARDINVFKRNGKTWVRFTFDFKKGTAERSIEIERPLVRMVKIKQHDGPSQERPVISMEICLADEIREAEFDLIDRRALNYPVLLGRKALAGYVVVDPARAYLTKAVCGHTKKKKKGSEPADPGQQHE", "values": [{"measurement": "protein production", "value": "failed"}]}, {"sequence": "MLKHCGEFHIALKHLQLALLYTYPSTFSELQVKFQIAHLYEVQNKHKAAKDGYEFLLNEKNISLELKADVYRQLGWMYHCVECLGEKKEREANALNFLQKSIEADPKSGQSLYLLGRCYAGINKVHDAFLAYRNSVEKSEGNADTWCSIGVLYQQQNQPTDALQAYICAVQLDKDHKAAWTNLGILYESCGQLRDAYACYLNATKQISFQKSSLIRKKQAIRMKKDTIGLSKGLSQRITFLEGQLSQAPLPSITSKRRQLCSIEEAWNLPISLEMNSRQQQTAQMLPRQVTKQSPVQGPPPPYPHSQLSQSPIPSKRIKEDGTSQQEVTQNNSQTSAQNLINISESLNQRNFNAMPESNKSSEQSVLDTFDDISNDIYKQNESIKLERLSQDALSNNEDSRHDFIGGDNADISTTFKIQMDSKQLMVAVKLLPIDEPPVHCTILQVNAPPPSPPDCPPQKLTRDQLLPPTPSVHLENKKHAFSPQLQEFCLKHPIAVVRGLAGVLKLDLGLFSTKTLVEANPDHSVEVRTQVHQSPDENWDTSQGKRVWACISHRSHTTIAKYAQYQASSFQDSLKLILPQDESDKGFPGSQAMSDSDSKDSVSNSNIVLKRKKHKINSKMLRFGTNVDLSDEKKWKPQLTELQKLPAFARVISAANMLSHVGHVILGMNTVQLYMKVPGSRTPGHQENNNFCSININIGPGDCEWFAVPDAYWGGVHNLCEKNNISYLHGSWWPVLEDLYKENIPVYRFIQKPGDLVWVNAGCVHWVQSIGWCNNIAWNVGPLTARQYSLAIERYEWNKVQAFKSIVPMVHLSWNLARNIKVSDTKLFELIKMCLLQTLKNVLHIQEYVKSKGVEIRFNGRGKNEASHYCGQCEVEVFNVLFIKEQEKRHVVHCLSCALKLSPSLQGIVCLEEYRLSELQRVYDSFTLHRTQGLAYTQ", "values": [{"measurement": "protein production", "value": "failed"}]}, {"sequence": "CSDLPEIQNGWKTTSHTELVRGARITYQCDPGYDIVGSDTLTCQWDLSWSSDPPFCEKTEE", "values": [{"measurement": "protein production", "value": "not failed"}]}, {"sequence": "MMMMRAFIAENVRGIYAFDEDGKLVGKRYFTDKPEKILDGLLKGELVKDLEEFLNELREKGYDEFIFEHPELSRKAKELGFNATTEFPNLAGERLRSNPEEFLGENWFDDYYNVGVALTRMRIQEQSGARDKMVIQAIEALDDVDKVINLLVSRLREWYSLHFPELDEILPRHPQYVAFVKAIGHRDNVDEEKLRELGLSDEKIKKIIEAKEKTMGAWMDETDIAIVQHFAEEIDRLYKLRKELEDYIDKAMDDVAPNLKALVGAKLGARLISLAGGLKELAMLPSSTIQVLGAEKALFRHLRTGAKPPKHGVIYQYPAINRSPWWQRGKIARALAGKLAIAARVDYFSGEYIAEELKKELEARIKEIKEKYPRPPKRRKEERKGRKPWKEKKKKKKKKKGGRRLEHHHHHH", "values": [{"measurement": "protein production", "value": "failed"}]}, {"sequence": "LAPGLHFIATPIGAARDITLRALDILRAADVLAAEDTRTLRHLMEIHGIPLGGRPLVAYHDHNGEAARPRLLRALAEGRSVAYASEAGTPLVADPGFQLGRAAIAAGHPVLAAPGPS", "values": [{"measurement": "protein production", "value": "failed"}]}, {"sequence": "MKYTQSFCFVSVIVLSSSVHLHGQNNKMNVLLIIADDMRPELGCYGIEDIVTPRLDSLARYATVFQNAYCNIPVSGASRASLFTGMYPRYPNRFTAFDASAEKDCPEALSLPECFKKNGYYVVSNGKVFHNITDHADSWSEAPWRVHPDGYGKDWAEYNKWELWQNEESSRYVHPKTLRGPFCESADVADTTYIDGRVAQKTIADLRRLHKKEKPFFLACGFWKPHLPFNAPKKYWDLYRREEIHLAQNPYRPKALPKQVTSSGEIRGYGKFVTTKDETFQREAKHGYYACVSYIDAQIGLILDELDRLGLSENTIVVILGDHGWHLGEHGFWGKHNLMNHATRAPLIVRVPHCRGGKAKGIVEFVDIYPTLCELCGVPMPKDQLQGKSFVPILQDSGKKTKQYAFIQWKGGYNIVSEQYSSTIWLQGDSVVARMIFDRQLDASENENKVHCPYLSRERDKLEAQIKIRKSQLLEHHHHHH", "values": [{"measurement": "protein production", "value": "failed"}]}, {"sequence": "MTLETISSLLPMSAAGLAAVVSALAALGLGLGLWCARHRLRLLTAALEASGCGLITIEGGTRVFQANRQAARLLGRPEGLARDTQARKLFGGTLTAAVQGPGDGQPVRGTAHRPDHGWFPATLQSLGPCGGFARQRRLWLLRDLSDAQELERLRETEERFNASQRFGRIGVWDWNTETNEVFWSEEVFPMFGFTPAEITPTYDLFIAMVHPDDFVALTDSERACLSGTTLHDQEYRVIWRDGSVHWIRETADVLRESDGTPRRMVGVIREVTEEKEAQRQALRIAMLDPLTGLPNRATFLERLEADLGQVDETGVAVPLALAFIDLDDFKPINDTYGHLMGDRVLMTIAKRLSEAVRPQDMVARVGGDEFVALLRGCRDGARARTVAARLLDAVTAPVSIDTVIHRVRASIGISLYPSLVSTGDDLIATADQAMYVAKRAGGDPIRLHGE", "values": [{"measurement": "protein production", "value": "failed"}]}, {"sequence": "MPPMLSGLLARLVKLLLGRHGSALHWRAAGAATVLLVIVLLAGSYLAVLAERGAPGAQLITYPRALWWSVETATTVGYGDLYPVTLWGRLVAVVVMVAGITSFGLVTAALATWFVGREQERRGHFVRHSEKAAEEAYTRTTRALHERFDRLERMLDDNRR", "values": [{"measurement": "protein production", "value": "failed"}]}, {"sequence": "PDISVAQPASALRYHLRPPRRNDGAAIHQLVSECPPLDLNSLYAYLLLCEHHAHTCVVAESPGGRIDGFVSAYLLPTRPDVLFVWQVAVHSRARGHRLGRAMLGHILERQECRHVRHLETTVGPDNQASRRTFAGLAGERGAHVSEQPFFDRQAFGGADHDDEMLLRIGPFTH", "values": [{"measurement": "protein production", "value": "not failed"}]}, {"sequence": "MTLAACMQEADQLQHWREKCWRPFFRVDEEILNIHNEQLGINEDHLHGAQSIHVASNIRARKVFEFPYLQTSMKPEDAGVDAILSKFNIMIYSYKDAAYPFRMVPPIVYAHLAILRVNAGDLTSSDTWRLYM", "values": [{"measurement": "protein production", "value": "failed"}]}, {"sequence": "MYTRLLVVSLACLLFGVSAFAQPMAPVPDAPLRNAALRMKDKDYRAVRDELRSVPPSPERTFLDGVAARRLEQWPEASELLGVAAKDLPLLADYALFWQAEALMAATRYDEAEEVLQRLVGTWPDSPTLRKARMLLADAQFARKEYRQALASYIRFIELYPSGTDSVTANLKTALCREGLDDPRRAVQELRAIWLAYPASPVAETAEQELKRLEALGFPAVPLTPDELLKRGTTLYNLGKYERALAVFNTIPLKEQLAGFNDRVALKIGETLLKLRRYKDAARTFSSLIEREPKREIADEARFLLARAQNKAGNDDEAFLGFLKLAETAPTSEWADNALLEAAFVRKFQGRYADQLAVLEKLLTTYPGTKLKPRAMWETAWARYNTGDYRSAAESFRLLTASADYRERALYWHGRSLQRIGEETVARQSFAMLAEEYPFSFYTFTATDPAPQEGAIPLIVHDLRQTISPPAGHERARALIAMGLHDQARSELSIARKNGSSRGKGLLGIARLYLEMNDYSSAAAALRGEQPRRMDGETATTWGLLYPRGFSDSVAAEANRHTIPEELIYGLIKAESGFSPVALSPVGAVGLMQLMPSTAKGMVNGSSPANGISARLTDPTFNVGLGVRHLKDLLKQYNGNVVSAVAAYNAGSRPVDRWRRSLAGLREDEFIENIPYYETREYVKKVLTFAEVYRRLYRPAAPALAFLPQVSAPEPPQPAPTNNAPPTAALASPPETSALTAPVRQQP", "values": [{"measurement": "protein production", "value": "failed"}]}, {"sequence": "MKTREYYVAAAAGLIGGNVSSFVKWGTEIPFPPRTPDRPIPPLEMLDSLGINANQLTYVYSEHMVNYGSALIHQSFSIFFAIFYCLTALRYPRVAVWQGFGFGMLVTLAFHGVLLPMFHWAPPLWELPPAEWASETFGHLLWIWVIEVIRRDLQQRWSPGPG", "values": [{"measurement": "protein production", "value": "failed"}]}, {"sequence": "MKYIIIGLGNYGHVLAEELSTLGHEVIGADLDEGRVDSIKDKIATAFVIDATDEQSLSVLPLNSVDMVIVAIGENFGASIRVVAMLKQKQVKHIYARAIDGVHKAVLEAFGLEKILTPEEDAARSLVQLLDFGTKMETFRVDSEYYVVKFNVPEKFVGYFVNELNLDEEFNLKLIGLKRSNTIKNCLGISLVEHKVVNELPEDAKIRPDDVLVCYGKYSDFQKLWKALLEHHHHHH", "values": [{"measurement": "protein production", "value": "not failed"}]}, {"sequence": "MIISELVHNNLRGGNKTHNLELKLPVKPVIGGSSSEDDAIVADASSLMHGDNPGLEFRHKELEAPLIPQRTHSLLYQPQKKVKPEATDSYVSQLTAEADDHLQSPNRDSLYTSMPNLRDSPYPESSPDMAEDLSPSRRSENEDIYYKSMPNLGAGRHLHMCYQISRGNSDGYIIPINKEGCIPEGDVREGQMQLVTSL", "values": [{"measurement": "protein production", "value": "failed"}]}, {"sequence": "MDRHTTEGWRRWAARLGAAAMALLLAACAAPRQQAASVDELPSWNDGPSRTAIVEFVRAVTRSGGPDFVAADERIAVFDNDGTLWSEQPMYFQMLFALDRVKSMAPRHPDWARRQPFKAALQDDHAALAKGGDVALMKIVGATHTDMSTDTFTRSVRYWASTARHPRFDRLYTELTFAPMRELLDYLRAHGFKTYIVSGGETEFMRSWTQQAYGIPPEQVIGSSFVTTYGVRDGEPTLWRHGKLEFNDDGPGKPVAIQRYIGRRPILAFGNSDGDLQMLQWTAAGDGKRFAGLVHHTDAQREWAYDRDSRIGRLDRALDEARRQDWTVVDMKTEWKRVYAFEQP", "values": [{"measurement": "protein production", "value": "not failed"}]}, {"sequence": "MRVLKKFFSGDNLLERVLILIVGLVASLILVIKSADLFVDNLVDLGSSLGISEVILGVTASAIGTSLPEFGSALIASLSGSTDIGVGCVIGSNIWNIAGILGISSVVAGIIETNADGLKRDFSATLVTGLILLFFMFFGNIGKIAALVMVLTYAVYLWRLIKAQKTYSDENSGKNEREPLDLKKLALTVVGFAGLVIGCRILVYTGVELADIAGIPAMIMGLFTLAIGTSIPELVVTLSSAVKGLHELSIGTVLGSNTFNILVGIGVPALIAPVPVERLSLTFDAPVMILVTVLLVLLIRQGDMKLKRTGGIVLLAVYISYVIMRLFVLA", "values": [{"measurement": "protein production", "value": "failed"}]}, {"sequence": "ETSDQRKAEEHIEKEAKYLASLLDAGNLNNQANEKIIKDAGGALDVSASVIDTDGKVLYGSNGRSADSQKVQALVSGHEGILSTTDNKLYYGLSLRSEGEKTGYVLLSASEKSDGLKGE", "values": [{"measurement": "protein production", "value": "not failed"}]}, {"sequence": "MSVWRRRAEGREPTQAQRLFRGLVREWLWVSLILLPLTAVLSLSHGLALNNLFYDNLRRFTPLPVDPRILLVTIDDYSLQQLGRWPWPRAIHGQLLDRLSAAEAKGVLFDVILSEPGSTVENDTRLAAALCRAGNVFLPVLRQGVARYGQDIEEIPPVPLLRNCARGLGHINAEADADGTVRSVYLREGPMLAPRAQLTWLLYQLTEAEPAFPHMPGPGEPRVAQGWLRSNPVRIPFISADAGFPSVPYVSVLRGEVPPELLRDRLILVGSTAPGLGDRYVTPQSGSQGTTPGVEIQANLLNGLLQHRSVVALGQWSGMLLSMALTAVLLGLLLWRPRHALWITLGCMGLGLAGSVLMLRLGYWWSPVASLLGMLLAYLIWNWRRLSVILAYFGWELARLDSEPKVLPERRRSQAPAGDVLQGQIVALEQALSRTRDTRRFIADGLEYLPVATLISDPDGKILLANRNAREVFAHSLVGEGLIAQLAALGYPGLTEPALYPRLEQLPAVEFRDVQQRSLRMELAPLLPVDSDTAIGWLLSLTDLSVERDAEQQRSVLLRFLSHDLRAPHSAILALLDVQRHQPATPRQVYGQIEQQVRRALALTEAFVQLAKAESEAYQFEPSMFAMLVLDAFDQATTLAQLKDIHLEHDLDDEAEGLVLADQSLLTRALFNLLENAIKYSPVESRVSVRVSCTPGWLRCEISDEGRGIDAADLPQLFGQYQRFASAKGIDGLGLGLSMVKAVVDRHQGRISCQSVVGRGSCFILELPLLEE", "values": [{"measurement": "protein production", "value": "failed"}]}]}
